This is an account of results in publication PMC11940548.

Test [1] concerns the target MotA1 from Paenibacillus sp. TCA20 (Paenibacillus sp. TCA20). The test can be described thus: cryo-EM structure; co-expressed chimeric MotA1/MotB1-His6 complex, solubilised in LMNG, purified by Ni-affinity and SEC, reconstituted into peptidisc; 20 mM Tris-HCl pH 8.0, 100 mM NaCl; single particle analysis, three classes (3.3, 3.3 and 3.5 Å).
In test [2] the target is chimeric MotB1 (N-terminal transmembrane domain of Paenibacillus sp. TCA20 MotB1 joined to the C-terminal periplasmic domain of E. coli MotB) (Paenibacillus sp. TCA20 | E. coli) (UniProt P0AF06). Described as above.

Broadly, the stoichiometry N is a count of units in the complex or per binding partner. Substance “MotA1 from Paenibacillus sp. TCA20 (natural protein)” registered a stoichiometry N in test [1] of 5.

In test [2], “chimeric MotB1 (N-terminal transmembrane domain of Paenibacillus sp. TCA20 MotB1 joined to the C-terminal periplasmic domain of E. coli MotB) (from UniProt P0AF06 104-302)” had a stoichiometry N of 2.
